# Source: paper PMC9769804
# Test system: SaraC (Stereum hirsutum FP-91666)
# Experiment: SPR
# Details: S-adenosylmethionine (16 mM, protein pre-incubation), SPR Biacore T200, CM5 anti-His capture, 1x PBS with 5% DMSO pH 7.5 (protein/SAM mix), oligos in 1x PBS, 25 C, 5 uL/min, analyte 0.25-4 uM (Fig. 1 legend …)
sequence,measurement,setting,value
CGATCGGATTTGACGGTT [Oligo5564],Kd,"two methyl groups, printed mG at positions 7 and 12, text calls these oligos 5mC or 6mA, so methylated base is ambiguous",821 nM
GATTCCTTC [Oligo7291],Kd,5mC at position 5,662 nM
ATCCAGAGCGAGCCTATTACG [Oligo1309],Kd,"called weak, 6mA at positions 7 and 11",1670 nM
